The data set “SEC” deals with the molecule itself. As to the kind of experiment: SEC. (SEC sorts molecules by how far they enter the pores of the column.)
Another data set has as its target Pex1/Pex6 complex (Saccharomyces cerevisiae, UniProt P24004). As to the kind of experiment: ATPase assay.

B1: Pex1-FLAG (recombinant) (natural protein, S. cerevisiae, UniProt P24004 1-1043, looked up)
chain: MTTTKRLKFENLRIQFSNAIVGNFLRLPHSIINVLESTNYAIQEFGIAVHSHNSDIPIVHLGWDGHDSGSSENVVLINPVLATVYDLNQKSPLVDLYIQRYDHTHLATEVYVTPETSDDWEIIDANAMRFQNGEILHQTRIVTPGETLICYLEGIVTKFKIDRVEPSMKSARITDGSLVVVAPKVNKTRLVKAEYGHSNKTILKNGAIQLLKKVILRSTVCKMDFPKDNLFVVYISDGAQLPSQKGYASIVKCSLRQSKKSDSDNKSVGIPSKKIGVFIKCDSQIPENHIALSSHLWDAFFTHPMNGAKIKLEFLQMNQANIISGRNATVNIKYFGKDVPTKSGDQYSKLLGGSLLTNNLILPTEQIIIEIKKGESEQQLCNLNEISNESVQWKVTQMGKEEVKDIIERHLPKHYHVKETGEVSRTSKDEDDFITVNSIKKEMVNYLTSPIIATPAIILDGKQGIGKTRLLKELINEVEKDHHIFVKYADCETLHETSNLDKTQKLIMEWCSFCYWYGPSLIVLDNVEALFGKPQANDGDPSNNGQWDNASKLLNFFINQVTKIFNKDNKRIRVLFSGKQKTQINPLLFDKHFVSETWSLRAPDKHARAKLLEYFFSKNQIMKLNRDLQFSDLSLETEGFSPLDLEIFTEKIFYDLQLERDCDNVVTRELFSKSLSAFTPSALRGVKLTKETNIKWGDIGALANAKDVLLETLEWPTKYEPIFVNCPLRLRSGILLYGYPGCGKTLLASAVAQQCGLNFISVKGPEILNKFIGASEQNIRELFERAQSVKPCILFFDEFDSIAPKRGHDSTGVTDRVVNQLLTQMDGAEGLDGVYILAATSRPDLIDSALLRPGRLDKSVICNIPTESERLDILQAIVNSKDKDTGQKKFALEKNADLKLIAEKTAGFSGADLQGLCYNAYLKSVHRWLSAADQSEVVPGNDNIEYFSINEHGRREENRLRLKTLLQQDVVHETKTSTSAASELTAVVTINDLLEACQETKPSISTSELVKLRGIYDRFQKDRNGEMPNGENSIDIGSRLSLM
As for B1, the binding result in “SEC” is on record as “binds”.

B2: Pex15 cytosolic domain (protein)
chain: MAASEIMNNLPMHSLDSSLRDLLNDDLFIESDESTKSVNDQRSEVFQECVNLFIKRDIKDCLEKMSEVGFIDITVFKSNPMILDLFVSACDIMPSFTKLGLTLQSEILNIFTLDTPQCIETRKIILGDLSKLLVINKFFRCCIKVIQFNLTDHTEQEEKTLELESIMSDFIFVYITKMRTTIDVVGLQELIEIFIFQVKVKLHHKKPSPNMYWALCKTLPKLSPTLKGLYLSKDVSIEDAILNSIDNKIQKDKAKSKGKQRGVKQKIHHFHEPMLHNSSEEQVKVEDAFNQRTSTDSRLQSTGTAPRKKNNDITVLAGSFWAVLKHHFTRS
As for B2, the Kd with Pex1/Pex6 complex was determined as 185 nM.

By Kd is commonly meant the equilibrium constant for the complex coming apart.

For the origin of these results see PMC4355278 (Journal of molecular biology, 2015).
